B1: OR4K15 (parent)
chain: GUUAACGGUCAUAGGCCAUGGAAACUAGGAGCACCAUUUCGCUGCCAGUGAAGAAAUGAACAAAGAAAAUCUGGGCCAGGCAGGCAUCAAAAGAAAUAGUCUUGCGCUCAACCAGAAAGUCUGUAAUCAUUUUAAGGGUA

Variants of: B1
Test: self-cleavage, relative activity (ratio to wild type); higher = more cleavage; in vitro, sequencing; the parent is a self-cleaving ribozyme

Variant	self-cleavage
A96U A135G	1.39
A96U A135U	0.78
A96U A135C	1.11
G106C A129U	0
A96G U102G	1.08
A96G U102C	2.33
A96G U102A	1.52
U102G U120A	0.77
U108C U131C	0.01
C101G U120C	0.03
A98G U120C	0.23
U100A A114U	0.01
A96U G99A	0.44
U102A A117G	1.12
U102A A135G	1.02
U97C A118U	1.62
U97C A118G	0.77
G106A U139A	0
U97A U127C	1.36
U108A U122C	0.04
U97A A126U	1.01
U100A U108C	0.03
A96G C101U	0.4
A98G A135C	0.44

Variant	self-cleavage
A96U U139C	1.15
U100C U103C	2.89
U102C U103C	0.21
U102C U124A	0.97
U103A A116U	0.2
A96G U122C	1.38
A98U A118U	1.62
U102G U133A	1.45
U108C C121U	0.02
A98U U120C	1.65
A96U U127A	2.6
U108A A116G	0.01
U102C A126C	1.47
G106C U127C	0
U100G U103C	0.09
A98G A117U	0.3
U97A U103C	1.63
U97A U103A	0.18
U108C A134C	0.01
U102A C107U	0.01
U103C U122A	1.14
A98G U131C	0.49
U103C A126G	0.35
G106U U127C	0.01

Variant	self-cleavage
U102C A117G	2.72
U102C A117U	0.83
U108C C112U	0.01
U103C A134U	0.78
U103C A134G	1.49
U97C C113A	0.04
G106A U108C	0
A96G G137U	1.8
U100C A129G	2.22
U100C A129C	1.8
C105A C112U	0
U103C A110U	0.79
U103C A110G	0.15
U108A A140C	0.04
U108A A140G	0
A98C U122C	2.2
C105G G136U	0.02
U100C U108A	0.02
A96U U122C	1.54
G106A U132C	0.01
G104U A117G	0.02
C101A A117G	0.13
A96G U131G	0.85
U102C U132A	2.37

Variant	self-cleavage
A96G U108C	0.01
A96G U108A	0.02
A96U U120C	1.17
U108C U124A	0.01
U108C U124C	0
A96G U120C	1.14
A96G U120A	2.74
U100C A111U	0.18
U100C A111C	0.01
A96U A117G	1.75
U108C A129G	0.01
G104A A125G	0.01
U102A U120C	0.37
U102A U120A	1.01
U97G U108C	0
U108A A129U	0.03
U100C G136A	2.45
U97A U108C	0.01
U97A U108A	0.03
U102A A126G	0.43
U102G A117G	0.37
U103C A118G	0.22
U102C A118U	1.08
U102C A118G	1.31

Variant	self-cleavage
U108A C121U	0
A96G U133C	1.82
U102C U139A	2.11
A98G U100C	2.04
G99A A134G	0.6
U108C A118G	0.01
U108C A118U	0
U102G G106C	0.01
G106A A118U	0
G106A A118G	0.02
A98U A110U	1.67
A98U A110G	0.17
U102C C128U	1.62
U102C C128A	2.11
G106C U108C	0
A96U A111G	0.04
U100C U102A	2.36
A98G A125U	0.84
G99U A117G	0.36
A96G U100A	0.78
C105U U122A	0.27
C105U U122C	0.11
U102C A135C	1.02
U102C A135U	2.46

Variant	self-cleavage
U108A U127C	0
U108A U139A	0.04
A98G	0.44
A98U	2.22
A98C	0.96
U100A U139A	1.29
U97C A134G	1.02
U108A A114U	0
A98U A116U	0.97
C105U A135U	0.28
G106A U124C	0.01
U108C U130A	0
U100C U130A	2.16
U97G U132C	1.54
G99A U103C	0.07
U97C U100C	2.15
U103C G136U	1.12
U108C U132C	0.01
U108C U132A	0.02
C105U U120C	0.05
U97C U108A	0
U97C U108C	0.04
C101A A118G	0.08
U97C U133C	1.53

Variant	self-cleavage
U100A G123A	0.47
A96U A114G	0.85
U97A C101U	0.49
C107U U122A	0
A96G A135G	1.91
A96G A135U	2.17
A96G U124A	0.94
U103C A135G	0.95
C105U A111U	0.01
U97A U132A	2.62
U97A U132C	0.95
C107U C121U	0.01
A98U A126G	1.86
U103C U131C	0.49
U108A A110G	0.01
U103C A125G	0.69
A96U U131C	2.32
U103A A110G	0.2
U103A A110U	0.62
U97C A140U	1.02
U100A A118G	0.47
U97C A110G	0.11
C105U U139C	0.08

Source: the RNAGym collection of RNA variant scans (doi:10.7554/elife.90254)
